Assay results taken from US20190321483A1 (Novartis, published 2019).
Where a chain is given by its changes, count along the chain named.

B1: J3: Anti-cKIT Fab′3 conjugated to Compound (1), DAR 4 (Fab, V domains shown)
VH: QVQLVQSGAEVKKPGSSVKVSCKASGGTFSSYAISWVRQAPGQGLEWMGTIGPFEGQPRYAQKFQGRVTITADESTSTAYMELSSLRSEDTAVYYCARGGYISDFDVWGQGTLVTVSS
VL: DIQMTQSPSSLSASVGDRVTITCRASQSISNYLAWYQQKPGKAPKLLIYDASSLQSGVPSRFSGSGSGTDFTLTISSLQPEDFATYYCQQYYYESITFGQGTKVEIKR
modifications: Compound (1) on native cysteine LC-214C (EU); Compound (1) on native cysteines HC-220C-226C-229C (EU)
B2: J1: Anti-cKIT Fab′1 conjugated to Compound (1), DAR 4 (Fab, V domains shown)
VH: B1 VH with T50V, G52F, F54A, Q57A, R59G
VL: B1 VL
modifications: Compound (1) on native cysteine LC-214C (EU); Compound (1) on native cysteines HC-220C-226C-229C (EU)
B3: J21: Anti-cKIT Fab′3 conjugated to Compound (5), DAR 4 (Fab, V domains shown)
VH: B1 VH
VL: B1 VL
modifications: Compound (5) on native cysteine LC-214C (EU); Compound (5) on native cysteines HC-220C-226C-229C (EU)
B4: J19: Anti-cKIT Fab′2 conjugated to Compound (2), DAR 4 (Fab, V domains shown)
VH: QVQLVQSGAEVKKPGSSVKVSCKASGGTFSSHALSWVRQAPGQGLEWMGGIIPSFGTADYAQKFQGRVTITADESTSTAYMELSSLRSEDTAVYYCARGLYDFDYWGQGTLVTVSS
VL: B1 VL with S28D, N31Q, Y32D, T85V, E94L, S95P, I96S
modifications: Compound (2) on native cysteine LC-214C (EU); Compound (2) on native cysteines HC-220C-226C-229C (EU)
B5: J22: Anti-cKIT Fab′3 conjugated to Compound (2), DAR 4 (Fab, V domains shown)
VH: B1 VH
VL: B1 VL
modifications: Compound (2) on native cysteine LC-214C (EU); Compound (2) on native cysteines HC-220C-226C-229C (EU)
B6: J2: Anti-cKIT Fab′2 conjugated to Compound (1), DAR 4 (Fab, V domains shown)
VH: B4 VH
VL: B1 VL with S28D, N31Q, Y32D, T85V, E94L, S95P, I96S
modifications: Compound (1) on native cysteine LC-214C (EU); Compound (1) on native cysteines HC-220C-226C-229C (EU)
B7: J17: Anti-cKIT Fab′2 conjugated to mc-MMAF, DAR 4 (Fab, V domains shown)
VH: B4 VH
VL: B1 VL with S28D, N31Q, Y32D, T85V, E94L, S95P, I96S
modifications: mc-MMAF on native cysteine LC-214C (EU); mc-MMAF on native cysteines HC-220C-226C-229C (EU)
B8: J14: Anti-cKIT Fab′1 conjugated to mc-MMAF, DAR 4 (Fab, V domains shown)
VH: B1 VH with T50V, G52F, F54A, Q57A, R59G
VL: B1 VL
modifications: mc-MMAF on native cysteine LC-214C (EU); mc-MMAF on native cysteines HC-220C-226C-229C (EU)
B9: J16: Anti-cKIT Fab′1 conjugated to Compound (2), DAR 4 (Fab, V domains shown)
VH: B1 VH with T50V, G52F, F54A, Q57A, R59G
VL: B1 VL
modifications: Compound (2) on native cysteine LC-214C (EU); Compound (2) on native cysteines HC-220C-226C-229C (EU)
B10: J20: Anti-cKIT Fab′3 conjugated to mc-MMAF, DAR 4 (Fab, V domains shown)
VH: B1 VH
VL: B1 VL
modifications: mc-MMAF on native cysteine LC-214C (EU); mc-MMAF on native cysteines HC-220C-226C-229C (EU)
B11: J18: Anti-cKIT Fab′2 conjugated to Compound (5), DAR 4 (Fab, V domains shown)
VH: B4 VH
VL: B1 VL with S28D, N31Q, Y32D, T85V, E94L, S95P, I96S
modifications: Compound (5) on native cysteine LC-214C (EU); Compound (5) on native cysteines HC-220C-226C-229C (EU)
B12: J15: Anti-cKIT Fab′1 conjugated to Compound (5), DAR 4 (Fab, V domains shown)
VH: B1 VH with T50V, G52F, F54A, Q57A, R59G
VL: B1 VL
modifications: Compound (5) on native cysteine LC-214C (EU); Compound (5) on native cysteines HC-220C-226C-229C (EU)
B13: J4: Anti-cKIT Fab′4 conjugated to Compound (1), DAR 4 (Fab, V domains shown)
VH: QVQLQQSGPGLVKPSQTLSLTCAISGDSVSTNSAAWNWIRQSPSRGLEWLGRIYYRSQWLNDYAVSVKSRITINPDTSKNQFSLQLNSVTPEDTAVYYCARQLTYPYTVYHKALDVWGQGTLVTVSS
VL: DIELTQPPSVSVSPGQTASITCSGDNLGDQYVSWYQQKPGQAPVLVIYDDTDRPSGIPERFSGSNSGNTATLTISGTQAEDEADYYCQSTDSKSVVFGGGTKLTVLG
modifications: Compound (1) on native cysteine LC-214C (EU); Compound (1) on native cysteines HC-220C-226C-229C (EU)
B14: J5: Anti-cKIT Fab′5 conjugated to Compound (1), DAR 4 (Fab, V domains shown)
VH: QVQLVQSGAEVKKPGESLKISCKGSGYSFTNYWIAWVRQMPGKGLEWMGIIYPSNSYTLYSPSFQGQVTISADKSISTAYLQWSSLKASDTAMYYCARVPPGGSISYPAFDHWGQGTLVTVSS
VL: DIELTQPPSVSVSPGQTASITCSGDNIGSIYASWYQQKPGQAPVLVIYRDNKRPSGIPERFSGSNSGNTATLTISGTQAEDEADYYCSVTDMEQHSVFGGGTKLTVLG
modifications: Compound (1) on native cysteine LC-214C (EU); Compound (1) on native cysteines HC-220C-226C-229C (EU)

Legend:
[1] = biological target: Human cKIT on human mobilized peripheral blood hematopoietic stem cells (human, UniProt P10721 26-976); assay: cell-based or functional assay
[2] = biological target: Mouse cKIT on C57BL/6J bone marrow cells (mouse, UniProt P05532 25-979); assay: cell-based or functional assay

Binder | EC50 (ng/ml), cell viability after 7 days, Human CD34+ cells [1] | EC50 (ng/ml), cell viability after 7 days, Human CD90+ cells [1] | EC50 (ng/ml), cell viability after 7 days, Human total nucleated cells [1] | EC50 (ng/ml), cell viability after 7 days, Mouse CD45+ cells [2] | EC50 (ng/ml), cell viability after 7 days, Mouse cKIT+ cells [2] | EC50 (ng/ml), cell viability after 7 days, Mouse total nucleated cells [2]
B1 | 8 ng/mL | 12 ng/mL | 45 ng/mL | – | – | –
B2 | 11 ng/mL | 13 ng/mL | 48 ng/mL | – | – | –
B3 | 88 ng/mL | 22 ng/mL | 154 ng/mL | – | – | –
B4 | 16 ng/mL | 23 ng/mL | 14 ng/mL | – | – | –
B5 | 10 ng/mL | 17 ng/mL | 8 ng/mL | – | – | –
B6 | 11 ng/mL | 16 ng/mL | 58 ng/mL | – | – | –
B7 | 16 ng/mL | 37 ng/mL | 12 ng/mL | – | – | –
B8 | 10 ng/mL | 11 ng/mL | 7 ng/mL | – | – | –
B9 | 7 ng/mL | 9 ng/mL | 6 ng/mL | – | – | –
B10 | 25 ng/mL | 72 ng/mL | 20 ng/mL | – | – | –
B11 | 11 ng/mL | 3 ng/mL | 15 ng/mL | – | – | –
B12 | 5 ng/mL | 1 ng/mL | 6 ng/mL | – | – | –
B13 | – | – | – | 3800 ng/mL | 8 ng/mL | 3800 ng/mL
B14 | – | – | – | 210 ng/mL | 120 ng/mL | 210 ng/mL
